Substitutions are numbered along the chain they refer to. Names and notes keep the numbering of the source. One block for each binder: values may come before it.
Experiments:
c-Met (NP_000236) [1] = molecular target: T1, c-Met (NP_000236) (human, UniProt P08581 25-932, limits assumed); assay: estimated from several ELISAs, Fab
T1 construct: also called antigen

c-Met (NP_000236) [2] = molecular target: T1, c-Met (NP_000236); assay: kinetic measurement, method and format not stated
human IgG1 Fc protein = molecular target: T2, human IgG1 Fc protein (human, UniProt P01857-1 100-330 = IgG part, limits assumed); assay: ELISA, plate-coated human IgG1 Fc protein, hybridoma culture supernatant
T2 construct: domain: Fc; Counter-screen antigen in the hybridoma ELISA; also called human Fc protein; human Fc
Procedure: The hybridoma cell culture obtained in Example 1(2) was added in an amount of 50 μL to each well of the plates and incubated for 1 hour. The cells remaining unreacted were washed out with a sufficient amount of Tris-buffered saline and Tween 20 (TBST). Goat anti-mouse IgG-horseradish peroxidase (HRP) was added to the plates and incubated for 1 hour at room temperature. The plates were washed with a sufficient amount of TBST. A substrate (OPD) of the peroxidase was added thereto, allowing the substrate and the peroxidase to react. The reaction level was determined by measuring absorbance at 450 nm on an ELISA reader. Hybridoma cell lines which secrete antibodies that specifically and strongly bind to human c-Met protein but not human Fc were selected repeatedly.

c-Met (NP_000236) [3] = molecular target: T1, c-Met (NP_000236); assay: ratio of the KD of chAbF46 to the KD of the clone
c-Met (NP_000236) [4] = molecular target: T1, c-Met (NP_000236); assay: method and reference clone not given

T1 sequence (P08581 25-932 limits assumed): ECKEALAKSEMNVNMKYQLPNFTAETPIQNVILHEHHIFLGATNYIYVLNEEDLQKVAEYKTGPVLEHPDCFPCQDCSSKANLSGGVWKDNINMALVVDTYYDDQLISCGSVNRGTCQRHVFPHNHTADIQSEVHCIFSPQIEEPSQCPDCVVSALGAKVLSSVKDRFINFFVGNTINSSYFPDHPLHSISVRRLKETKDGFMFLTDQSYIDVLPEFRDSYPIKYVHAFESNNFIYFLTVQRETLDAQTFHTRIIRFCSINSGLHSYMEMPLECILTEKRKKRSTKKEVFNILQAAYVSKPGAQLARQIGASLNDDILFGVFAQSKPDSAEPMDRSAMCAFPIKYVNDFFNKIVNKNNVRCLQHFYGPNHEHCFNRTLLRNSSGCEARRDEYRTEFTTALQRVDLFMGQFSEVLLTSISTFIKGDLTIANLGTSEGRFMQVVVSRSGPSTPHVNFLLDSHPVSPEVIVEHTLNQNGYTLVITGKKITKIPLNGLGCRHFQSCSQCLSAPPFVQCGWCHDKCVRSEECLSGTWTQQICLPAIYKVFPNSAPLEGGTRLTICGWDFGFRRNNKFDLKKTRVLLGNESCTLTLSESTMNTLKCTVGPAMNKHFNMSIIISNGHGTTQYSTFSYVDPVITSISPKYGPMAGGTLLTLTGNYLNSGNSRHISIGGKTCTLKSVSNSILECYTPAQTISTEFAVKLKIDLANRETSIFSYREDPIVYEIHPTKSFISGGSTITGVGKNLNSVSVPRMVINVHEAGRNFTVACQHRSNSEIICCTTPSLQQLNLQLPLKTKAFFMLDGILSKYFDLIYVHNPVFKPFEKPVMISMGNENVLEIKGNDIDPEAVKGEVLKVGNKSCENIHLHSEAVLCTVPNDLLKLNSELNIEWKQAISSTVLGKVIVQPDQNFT

B1: chimeric clone of AbF46 (Fab) (Fab, V domains shown)
VH: EVKLVESGGGLVQPGGSLRLSCATSGFTFTDYYMSWVRQPPGKALEWLGFIRNKANGYTTEYSASVKGRFTISRDNSQSILYLQMDTLRAEDSATYYCARDNWFAYWGQGTLVTVSA
VL: DILMTQSPSSLTVSAGEKVTMSCKSSQSLLASGNQNNYLAWHQQKPGRSPKMLIIWASTRVSGVPDRFIGSGSGTDFTLTINSVQAEDLAVYYCQQSYSAPLTFGAGTKLELKR
notes: also called chAbF46
Kd (c-Met (NP_000236) [1]): ~4 nM | Kd (c-Met (NP_000236) [2]): 2.19 nM | koff (c-Met (NP_000236) [2]): 0.000723 s⁻¹ | kon (c-Met (NP_000236) [2]): 329000 M⁻¹ s⁻¹

B4: clone L1bA (Fab) (Fab, V domains shown)
VH: EVQLVESGGGLVQPGGSLRLSCAASGFTFTDYYISWVRQAPGKGLEWVGFIRNKANGYTTEYSASVKGRFTISRDDSKNSLYLQMNSLKTEDTAVYYCARDNWFAYWGQGTLVTVSS
VL: DIVMTQSPLSLPVTPGEPASISCKSSQSLLAWGNQNNYLAWYLQKPGQSPQLLIYWASTRVSGVPDRFSGSGSGTDFTLKISRVEAEDVGVYYCQQSYSRPLTFGQGTKLEIKR
notes: L3E with S27->W (S27E->W) in CDR-L1; Fab with human kappa constant region and CH1 of human IgG1; also called LlbA
Kd (c-Met (NP_000236) [1]): ~0.3 nM | fold improvement in binding over the starting clone L3E (c-Met (NP_000236) [1]): ~100 fold | WT KD/Mutant KD (c-Met (NP_000236) [3]): 12.8 ratio

B5: clone 1-F3 (Fab) (Fab, V domains shown)
VH: B4 VH
VL: B4 VL with L39A
notes: Clone from the combinatorial library; Fab with human kappa constant region and CH1 of human IgG1
fold enhancement of binding ability (c-Met (NP_000236) [4]): ~3 fold | WT KD/Mutant KD (c-Met (NP_000236) [3]): 8.8 ratio

B6: clone C28 (Fab) (Fab, V domains shown)
VH: B4 VH
VL: B4 VL with G33S, S58I, S62G
notes: as for B5
fold enhancement of binding ability (c-Met (NP_000236) [4]): ~3 fold | WT KD/Mutant KD (c-Met (NP_000236) [3]): 19.9 ratio

B8: antibody C28m (mutated C28) (Fab, V domains shown)
VH: B4 VH
VL: B4 VL with G33S, L52M, Y55I, S58I, S62G, L102Y
notes: C28 with L46M, Y49I and L96Y in VL; Described as an antibody fragment cloned into the same vector as the wild type
Kd (c-Met (NP_000236) [2]): < 0.01 nM | koff (c-Met (NP_000236) [2]): < 7.4e-05 s⁻¹ | kon (c-Met (NP_000236) [2]): 940000 M⁻¹ s⁻¹

Now from value to binder:

binding result (human IgG1 Fc protein): no binding
B2: mouse antibody AbF46 (antibody, V domains shown)
VH: B1 VH
VL: B1 VL
notes: Mouse monoclonal antibody from a hybridoma; also called monoclonal antibody of hybridoma KCLRF-BP-00220

Kd (c-Met (NP_000236) [1]): ~30 nM
B3: clone L3E (Fab, V domains shown)
VH: B4 VH
VL: B4 VL with W32S

fold enhancement of binding ability (c-Met (NP_000236) [4]): ~3 fold | WT KD/Mutant KD (c-Met (NP_000236) [3]): 13.7 ratio
B7: clone C30 (Fab) (Fab, V domains shown)
VH: B4 VH
VL: B4 VL with N34F, S62G
notes: as for B5

From patent US20140294814A1 (SAMSUNG ELECTRONICS, published 2014)
